The numbers were not newly measured in US4786501A, “Cylindrical implants for the controlled release of growth hormones” (International Minerals & Chemical Corp., priority 1985, dated 1988), which cites them from elsewhere.

The test system of data set [1] is young swine. Particulars: field trials.
Data set [2] deals with cows. The following applies: field trials, Machlin 1973.

B1: native PGH: native porcine growth hormone, protein containing 191 amino acid residues (protein, UniProt P01248 27-216, looked up)
Somatotropin: FPAMPLSSLFANAVLRAQHLHQLAADTYKEFERAYIPEGQRYSIQNAQAAFCFSETIPAPTGKDEAQQRSDVELLRFSLLLIQSWLGPVQFLSRVFTNSLVFGTSDRVYEKLKDLEEGIQALMRELEDGSPRAGQILKQTYDKFDTNLRSDDALLKNYGLLSCFKKDLHKAETYLRVMKCRRFVESSCAF
On to B1, for which the growth rates result in data set [1] is reported as “increased growth rates”.

B2: BGH: bovine growth hormone purified from pituitary glands, protein containing 191 amino acid residues (protein, UniProt P01246 27-217, looked up)
Somatotropin: AFPAMSLSGLFANAVLRAQHLHQLAADTFKEFERTYIPEGQRYSIQNTQVAFCFSETIPAPTGKNEAQQKSDLELLRISLLLIQSWLGPLQFLSRVFTNSLVFGTSDRVYEKLKDLEEGILALMRELEDGTPRAGQILKQTYDKFDTNMRSDDALLKNYGLLSCFRKDLHKTETYLRVMKCRRFGEASCAF
For B2, in data set [2], the feed-to-milk conversion entry was “improved feed-to-milk conversion” and the milk production result is recorded as “increased milk production”.
